The results in this text go back to patent US20170157250A1 (Genmab, published 2017).

The target in assay [1] is T1, human AXL (full length, on cells) (human (Homo sapiens), UniProt P30530 26-894).
T1 construct: Used for transfected HEK293 cells and for AXL-positive A431 cells (endogenous AXL); also called hsAXL; Homo sapiens AXL
T1 sequence: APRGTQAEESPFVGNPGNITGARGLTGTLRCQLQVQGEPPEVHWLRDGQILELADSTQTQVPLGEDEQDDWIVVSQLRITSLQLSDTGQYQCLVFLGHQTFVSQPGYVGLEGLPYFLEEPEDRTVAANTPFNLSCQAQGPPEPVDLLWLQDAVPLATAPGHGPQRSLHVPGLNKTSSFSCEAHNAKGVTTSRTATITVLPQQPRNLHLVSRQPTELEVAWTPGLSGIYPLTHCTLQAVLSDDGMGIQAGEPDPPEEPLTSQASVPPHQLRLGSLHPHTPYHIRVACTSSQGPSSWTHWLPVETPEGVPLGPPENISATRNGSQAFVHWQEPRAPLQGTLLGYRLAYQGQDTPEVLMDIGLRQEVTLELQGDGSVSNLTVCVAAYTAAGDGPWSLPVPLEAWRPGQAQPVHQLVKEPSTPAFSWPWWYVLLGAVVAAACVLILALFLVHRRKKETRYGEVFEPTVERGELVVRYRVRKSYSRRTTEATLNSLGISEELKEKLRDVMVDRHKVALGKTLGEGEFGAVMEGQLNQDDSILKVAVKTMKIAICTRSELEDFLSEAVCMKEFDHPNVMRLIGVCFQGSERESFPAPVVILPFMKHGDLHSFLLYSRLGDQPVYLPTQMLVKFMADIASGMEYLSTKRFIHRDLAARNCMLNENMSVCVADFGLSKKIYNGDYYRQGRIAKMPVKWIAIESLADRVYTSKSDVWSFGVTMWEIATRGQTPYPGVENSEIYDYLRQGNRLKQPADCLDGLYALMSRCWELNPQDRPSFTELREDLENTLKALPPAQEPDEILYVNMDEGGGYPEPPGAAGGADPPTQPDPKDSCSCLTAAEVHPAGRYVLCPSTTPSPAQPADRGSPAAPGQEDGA
Put plainly: flow cytometry, HEK-293F cells transfected with full length human AXL, 4-fold dilutions of antibody, PE-anti-human IgG F(ab')2. Background: A flow cytometer gives signals particle by particle.

For assay [2], the target named is T1, human AXL (full length, on cells). Put plainly: flow cytometry, HEK293T cells transiently transfected with full-length human AXL, 4-fold dilutions, PE-anti-human IgG F(ab')2. As to the method: Binding curves were analyzed using non-linear regression (sigmoidal dose-response with variable slope) using GraphPad Prism V5.04 software (GraphPad Software, San Diego, Calif., USA).

By EC50 (read off the curve) is commonly meant the concentration giving half of the maximal effect. Low readings indicate a more potent agent, high ones a less potent agent.

B1: IgG1-AXL-171 (antibody, V domains shown)
VH: EVQLLESGGGLVQPGGSLRLSCAASGFTFSSYAMSWVRQAPGKGLEWVSDISVSGGSTYYADSVKGRFTISRDNSKNTLYLQMNSLRAEDTAVYYCAKEGYIWFGESLSYAFDIWGQGTMVTVSS
VL: not shown
notes: Expressed as IgG1,kappa
B1: the “EC50 (read off the curve)” value in assay [1] was around 0.2 µg/mL.

B2: IgG1-AXL-107 (antibody, V domains shown)
VH: EVQLLESGGGLVQPGGSLRLSCAASGFTFSSYAMNWVRQAPGKGLEWVSTTSGSGASTYYADSVKGRFTISRDNSKNTLYLQMNSLRAEDTAVYYCAKIWIAFDIWGQGTMVTVSS
VL: not shown
notes: Expressed as IgG1,kappa
Consider B2, for which the “EC50 (read off the curve)” value in assay [1] was around 0.2 µg/mL.

B3: IgG1-AXL-183-A-vcDuo3 (other)
heavy chain: QVQLQQWGAGLLKPSETLSLTCAVYGGSFSGYYWSWIRQPPGKGLEWIGEINQSGSTNYNPSLKSRVTISVDTSKNQFSLKLSSVTAADTSVYYCASGNWDHFFDYWGQGTLVTVSS
light chain: DIQMTQSPSSVSASVGDRVTITCRASQGISSWLAWYQHKPGKAPKLLIYATSSLQSGVTSRFSGSGSGTDFTLTISSLQPEDFATYYCQQAKSFPWTFGQGTKVEIK
notes: The sheet writes '-A-vcDuo3', the text '-vcDuo3'; also called IgG1-AXL-183-vcDuo3; IgG1-AXL-183-vcDuostatin3
As for B3, the concentration giving a half-maximal response (EC50 (read off the curve)) in assay [2] was around 0.2 µg/mL.
